Patent publication US20080089862A1, “PROTEASE INHIBITORS AND METHOD OF SCREENING THEREOF” (priority 2005, published 2008)

B1: scFv 10: NS3-inhibiting single-chain antibody, SEQ ID NO:11; MBP fusion SEQ ID NO:25 (protein)
scFv: QVQLQQSGAELMKPGASVKISCKATGYTFSNYWIEWVKQRPGHGLEWIGGILPGSGSTNYNEKFKGKATFTADTSSNTAYLQLSSLTSEDTAVYYCNADGPPGFDYWGQGTTLTVSSGGGGSGGGGSGGGGSDVLMTQTPLTLSVTIGQPASISCKSSQSLLDSDGKTYLNWLLQRPGQSPKRLIYLVSKLDSGVPDRFTGSGSGTDFTLKISRVEAEDLGVYYCFQGSHVPFTFGSGTKLEIKR
modifications: scFv inhibitor
B2: scFv 148: NS3-inhibiting single-chain antibody, SEQ ID NO:7; MBP fusion SEQ ID NO:21 (protein)
scFv: EIQLQQSGAELVKPGASVKLSCTASGFNIKDTFVHWVKQRPEQGLEWIGRIDPANGNTKYDPKFQGKATITAATSSNTAYLQLSSLTSEDTAVYYCATGLDYYAMDYWGQGTSVTVSSGGGGSGGGGSGGGGSDVVMTQTPLSPPVSLGDQASISCRSSQSLVHSNGNTYLHWYLQKPGQSPKLLIYKVSNRFSGVPDRFSGSGSGTDFTLKITRVEAEDLGLYFCSQSTHVPWTFGGGTKLEIKR
modifications: scFv inhibitor
B3: scFv 171: NS3-inhibiting single-chain antibody, SEQ ID NO:6; MBP fusion SEQ ID NO:20 (protein)
scFv: EVQLQQSGAELVRSGASVKLSCTASGFNIKDYYMHWVKQRPEQGLEWIGWIDPENGDTEYAPKFQGKATMTADTSSNTAYLQLSSLTSEDTAVYYCNAWGGSSDYYAMDYWGQGTSVTVSSGGGGSGGGGSGGGGSDVVMTQTPLSLPVSLGDQASISCRSSQSLVHSNGNTYLHWYLQKPGQSPKLLIYKVSNRFSGVPDRFSGSGSGTDFTLKISRVEAEDLGVYYCFQGSHVPWTFGGGTKLEIKR
modifications: scFv inhibitor
B4: scFv 162: NS3-inhibiting single-chain antibody, SEQ ID NO:5; MBP fusion SEQ ID NO:19 (protein)
scFv: EVQLQQSGAELVRSGASVKLSCTASGFNIKDYYMHWVKQRPEQGLEWIGWIDPANGNTKYDPKFQGKATITADTSSNTAYLQLSSLTSEDTAVYYCARWDWYFDVWGAGTTVTVSSGGGGSGGGGSGGGGSSVLMTQTPLSLPVSLGDQASISCRSSQSIVHSNGNTYLEWYLQKPGQSPKLLIYKVSNRFSGVPDRFSGSGSGTDFTLKISRVEAEDLGVYYCFQGSHVPWTFGGGTKLELKR
modifications: scFv inhibitor
B5: scFv 1: NS3-inhibiting single-chain antibody, SEQ ID NO:1; MBP fusion SEQ ID NO:15 (protein)
scFv: EVQLQQSGPELVKPGASVKMSCKASGYTFTDYYIKWVKQSHGKSLEWIGVINPGSGGTNYNEKFKGKATLTADKSSSTAYMQLSSLTSENSAVYFCARRAGTGYYFDYWGQGTTVTVSSGGGGSGGGGSGGGGSDVLMTQTPLSLPVSLGDQASISCRSSQSIVHSNGNTYLEWYLQKPGQSPKLLIYKVSNRFSGVPDRFSGSGSGTDFTLKISRVEAEDLGVYYCFQGSHVPLTFGAGTKLEIKR
modifications: scFv inhibitor
B6: scFv 11: NS3-inhibiting single-chain antibody, SEQ ID NO:10; MBP fusion SEQ ID NO:24 (protein)
scFv: EVQLQQSGAELVKPGASVKLSCTASGFNIKDYYMHWVKQRPGQGLEYIGRIYPGNGQTDYNGKFKGKATLTADKSSSTAYMQLSSLTSVDSAVYFCARGLFAYWGQGTLVTVSSGGGGSGGGGSGGGGSDVVMTQTPLSLPVSFGDQVSISCRSSQSLANSYGNTYLSWCLHKPGQSPQLLIYGISNRFSGVPDRFSGSGSGTDFTLKISTIKPEDLGMYYCLQGTHQPLTFGAGTKLEIKR
modifications: scFv inhibitor

Legend:
[1] = molecular target: T1, scNS3 (Hepatitis C virus genotype 1b, UniProt P26663); test: Competition ELISA with myc-tagged tracer scFvs 171 and 35 on scNS3-coated plates; format: binding, Hepatitis C virus (HCV) genotype Ib; settings: tracers scFv 171 and 35, myc tag
T1 construct: a single-chain fusion linking the NS4A cofactor peptide to the N-terminus of the NS3 protease; inferred from the IMAC purification; made in house; host or cells: E. coli BL-21 (DE3) carrying pYB-43
Method: For competition ELISA the inventors replaced the C-terminal FLAG epitope of the scFvs that were used as tracers with a myc tag. Competing scFvs were added to scNS3-coated plates at varying concentrations and incubated at room temperature for 1 hr before adding the tracer scFvs. Binding of the tracers was monitored using a HRP-conjugated anti myc antibody (Sigma, Israel).

[2] = molecular target: T2, MBP-scNS3 (Hepatitis C virus genotype 1b, UniProt P26663); test: ONPG hydrolysis (β-galactosidase) assay in genetic screening bacteria as indicator of NS3 activity; format: cell-based, Hepatitis C virus (HCV) genotype Ib; settings: E. coli TG-I carrying pMGT14 and pMALc-NN-scFv; taken from FIG. 3A
T2 construct: made in house
Method: (§1) NS3 catalysis inhibition assays. Blue colonies of E. coli TG-I cells carrying pMGT14 and pMALc-NN-scFv that were isolated by the genetic screening were grown in LB medium supplemented with 100 μg/ml ampicillin, 50 μg/ml kanamycin and induced with 0.2% (w/v) arabinose and 0.5 mM IPTG at O.D600nm=0.6 for 4 hr at 30° C. To measure the β-galactosidase activity an ONPG hydrolysis assay (Bach et al., 2001) was carried out. An in vitro fluorometric assay for the measurement of NS3 protease catalysis inhibition by the purified scFvs was carried out essentially as described (Berdichevsky et al., 2003) with the following modifications: the EFGP-NS5A/B-CBD substrate was immobilized onto cellulose prior to its exposure to enzyme and inhibitor. The reactions were carried out in 96 well plates in a volume of 100 μl containing 5 μM immobilized substrate, 100 nM MBP-5cNS3 and 2.4 or 1.2 μM of tested MBP-scFv.

[3] = molecular target: T2, MBP-scNS3; test: In vitro fluorometric assay of NS3 protease catalysis inhibition; format: biochemical, Hepatitis C virus (HCV) genotype Ib; settings: 100% minus % catalysis of FIG. 3B; 100 nM MBP-scNS3, 5 μM immobilized substrate, 2.4 or 1.2 μM MBP-scFv
Method: as §1

[4] = molecular target: T3, NS3 (Hepatitis C virus genotype 1b, UniProt P26663); test: Competitive in vitro fluorometric assay with epitope mimetic peptide; format: biochemical, Hepatitis C virus (HCV); settings: scFv 200 μg/ml
T3 construct: made in house
Excerpt: In order to confirm the prediction of scFv 35 and 171 shared epitope on NS3, the epitope was reconstituted on basis of the prediction. To that end, a short peptide segment of NS3 that was predicted to comprise the antibodies shared epitope was used to generate an epitope mimetic. […] As negative controls, a peptide 21 amino acids in length denoted peptide 6 (N′-[…]-C, SEQ ID NO: 111) and a peptide eight amino acids in length denoted peptide x (N′-[…]-C, SEQ ID NO: 112) were used. To test whether those peptides have any effect on NS3 catalytic activity a control in vitro assay was performed, in which the peptides and the NS3 enzyme were added alone without the inhibitor antibodies.

[5] = test system: HCV RNA replicons; test: Inhibition of HCV RNA replicon amplification, SEAP secretion from replicon-bearing Huh7 cells transfected with intrabodies; format: cell-based, HCV genotype Ib strain N; settings: transiently transfected intrabodies
Method: Cells and transfections. HCV genotype Ib strain N subgenomic replicon cell lines were obtained from Stanley Lemon and are described in (Bourne et al., 2005). En5-3 cells are a clonal cell line derived from Huh7 cells by stable transformation with the plasmid pLTR-SEAP. These cells were cultured in DMEM supplemented with 10% fetal calf serum, 2 μg/ml blasticidin (Invitrogen), penicillin, and streptomycin. Following transfection with Ntat2ANeo replicon RNAs, cells supporting replicon amplification were selected and maintained in the above media containing in addition 400 μg/ml G418 (geneticin). Cell lines were passaged once or twice per week. […] The culture medium was replaced every 24 h post transfection and the secreted alkaline phosphatase (SEAP) activity was measured in these fluids as described below, reflecting the daily production of SEAP by the cells.
Alkaline phosphatase assay. […] The luminescent signal was read using a TD-20/20 Luminometer (Turner Designs, Inc.).
For intracellular expression of the anti-NS3 protease single-chain antibodies in the cytoplasm of mammalian cells, the scFvs coding genes were subcloned as Ncol-Notl fragments, form plasmid pMALc-NN-scFv into the pCMV/myc/cyto-MBP vector (Shaki-Loewenstein et al, 2005). […] SEAP activity secreted from the cells was measured over successive 24-h intervals. […]

| Molecule | competition with scFvs 171 and 35 for specific binding to scNS3 [1] | β-gal: β-galactosidase units [2] | % inhibition [3] | NS3 catalysis with scFv, without peptide ([4]; no peptide) | NS3 catalysis with scFv in the presence of the epitope mimetic peptide ([4]; peptide mimetic 50 μM) | increase of NS3 catalytic activity on adding the peptide mimetic ([4]; peptide mimetic 50 μM) | inhibition of SEAP secretion (in words) [5] |
| --- | --- | --- | --- | --- | --- | --- | --- |
| B1 | could compete | 48 β-galactosidase units | 62% | – | – | – | – |
| B2 | – | 72 β-galactosidase units | 58% | – | – | – | – |
| B3 | could compete | 67 β-galactosidase units | 88% | 60% | 93% | more than 30% | most potent inhibitors |
| B4 | apparently did not | 84 β-galactosidase units | 62% | – | – | – | – |
| B5 | could compete | 44 β-galactosidase units | 46% | – | – | – | – |
| B6 | could compete | 60 β-galactosidase units | 52% | – | – | – | – |
